Data published in PMC10397247.
One block for each binder: values may come before it.

How the values were obtained:
[1] = target: T1, O13; test: two-hybrid library CCNG1;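 also: natural log of median RNA to DNA barcode read ratio; higher means stronger binding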
T1 chain: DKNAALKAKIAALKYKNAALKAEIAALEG

[2] = target: T2, O4; test: two-hybrid library CCNG1;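 also: natural log of median RNA to DNA barcode read ratio; higher means stronger binding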
T2 chain: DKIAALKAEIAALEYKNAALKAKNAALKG

[3] = target: T3, O2; test: two-hybrid library CCNG1;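 also: natural log of median RNA to DNA barcode read ratio; higher means stronger binding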
T3 chain: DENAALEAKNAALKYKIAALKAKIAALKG

[4] = target: T4, O8; test: two-hybrid library CCNG1;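 also: natural log of median RNA to DNA barcode read ratio; higher means stronger binding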
T4 chain: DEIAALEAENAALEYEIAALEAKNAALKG

[5] = target: T5, O6; test: two-hybrid library CCNG1;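 also: natural log of median RNA to DNA barcode read ratio; higher means stronger binding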
T5 chain: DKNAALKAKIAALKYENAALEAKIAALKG

[6] = target: T6, O7; test: two-hybrid library CCNG1;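 also: natural log of median RNA to DNA barcode read ratio; higher means stronger binding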
T6 chain: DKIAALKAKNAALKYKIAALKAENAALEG

[7] = target: T7, O9; test: two-hybrid library CCNG1
T7 chain: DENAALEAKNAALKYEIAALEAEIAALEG

[8] = target: T8, O5; test: two-hybrid library CCNG1
T8 chain: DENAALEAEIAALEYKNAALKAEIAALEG

[9] = target: T9, O15; test: two-hybrid library CCNG1
T9 chain: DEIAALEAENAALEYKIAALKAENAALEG

[10] = target: T10, O11; test: two-hybrid library CCNG1
T10 chain: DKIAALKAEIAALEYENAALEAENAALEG

[11] = target: T11, O3; test: two-hybrid library CCNG1
T11 chain: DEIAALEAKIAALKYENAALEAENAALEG

[12] = target: T12, O12; test: two-hybrid library CCNG1
T12 chain: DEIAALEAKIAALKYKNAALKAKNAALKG

[13] = target: T13, O16; test: two-hybrid library CCNG1
T13 chain: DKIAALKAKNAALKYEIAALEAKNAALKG

[14] = target: T14, O14; test: two-hybrid library CCNG1
T14 chain: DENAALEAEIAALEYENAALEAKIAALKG

[15] = target: T15, O10; test: two-hybrid library CCNG1
T15 chain: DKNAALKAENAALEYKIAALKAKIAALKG

[16] = target: T16, 4H3632-bH; test: two-hybrid library CCNG1
T16 chain: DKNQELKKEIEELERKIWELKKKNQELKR

[17] = target: T17, 4H2691-bH; test: two-hybrid library CCNG1
T17 chain: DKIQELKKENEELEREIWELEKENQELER

[18] = target: T18, 4H145-bH; test: two-hybrid library CCNG1; details: mean of both orientations
T18 chain: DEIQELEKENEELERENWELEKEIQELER

[19] = target: T19, 4H3070-bH; test: two-hybrid library CCNG1; details: mean of both orientations
T19 chain: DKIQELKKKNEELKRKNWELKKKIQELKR

[20] = target: T20, 4H496-bH; test: two-hybrid library CCNG1
T20 chain: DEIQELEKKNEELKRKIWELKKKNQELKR

[21] = target: T21, 4H2619-bH; test: two-hybrid library CCNG1
T21 chain: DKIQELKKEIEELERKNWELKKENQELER

[22] = target: T22, 4H342-bH; test: two-hybrid library CCNG1
T22 chain: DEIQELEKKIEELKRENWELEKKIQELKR

[23] = target: T23, P6SC1; test: two-hybrid library CCmax; details: mean of both orientations
T23 chain: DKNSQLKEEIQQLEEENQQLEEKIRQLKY

[24] = target: T24, P6SC2; test: two-hybrid library CCmax; details: mean of both orientations
T24 chain: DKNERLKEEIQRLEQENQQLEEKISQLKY

[25] = target: T23, P6SC1; test: two-hybrid library CCNG1
[26] = target: T24, P6SC2; test: two-hybrid library CCNG1
[27] = target: T25, 4H346-bH; test: two-hybrid library CCNG1
T25 chain: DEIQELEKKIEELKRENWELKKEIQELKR

[28] = target: T26, 4H797-bH; test: two-hybrid library CCNG1
T26 chain: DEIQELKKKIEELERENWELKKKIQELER

[29] = target: T27, 4H918-bH; test: two-hybrid library CCNG1
T27 chain: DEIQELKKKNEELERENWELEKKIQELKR

[30] = target: T28, 4H3010-bH; test: two-hybrid library CCNG1
T28 chain: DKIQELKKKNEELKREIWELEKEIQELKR

[31] = target: T29, 4H754-bH; test: two-hybrid library CCNG1
T29 chain: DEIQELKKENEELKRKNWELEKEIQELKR

[32] = target: T30, 4H575-bH; test: two-hybrid library CCNG1
T30 chain: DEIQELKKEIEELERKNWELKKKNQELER

[33] = target: T31, 4H855-bH; test: two-hybrid library CCNG1
T31 chain: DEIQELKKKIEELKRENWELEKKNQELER

[34] = target: T32, 4H457-bH; test: two-hybrid library CCNG1
T32 chain: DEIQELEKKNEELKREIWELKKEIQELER

[35] = target: T33, 4H3112-bH; test: two-hybrid library CCNG1
T33 chain: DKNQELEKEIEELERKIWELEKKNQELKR

[36] = target: T34, 4H3926-bH; test: two-hybrid library CCNG1
T34 chain: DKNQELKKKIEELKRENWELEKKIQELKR

[37] = target: T35, 4H2702-bH; test: two-hybrid library CCNG1
T35 chain: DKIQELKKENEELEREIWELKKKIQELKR

[38] = target: T36, 4H1831-bH; test: two-hybrid library CCNG1
T36 chain: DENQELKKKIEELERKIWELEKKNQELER

[39] = target: T37, 4H2586-bH; test: two-hybrid library CCNG1
T37 chain: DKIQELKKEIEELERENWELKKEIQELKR

[40] = target: T38, 4H2233-bH; test: two-hybrid library CCNG1
T38 chain: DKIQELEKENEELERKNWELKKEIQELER

[41] = target: T39, 4H4073-bH; test: two-hybrid library CCNG1
T39 chain: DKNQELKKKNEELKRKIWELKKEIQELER

[42] = target: T40, 4H112-bH; test: two-hybrid library CCNG1
T40 chain: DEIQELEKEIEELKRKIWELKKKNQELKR

[43] = target: T41, 4H3427-bH; test: two-hybrid library CCNG1
T41 chain: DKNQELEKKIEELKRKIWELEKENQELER

[44] = target: T42, 4H683-bH; test: two-hybrid library CCNG1
T42 chain: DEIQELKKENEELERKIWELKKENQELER

[45] = target: T43, 4H1158-bH; test: two-hybrid library CCNG1
T43 chain: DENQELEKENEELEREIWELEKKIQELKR

[46] = target: T44, 4H780-bH; test: two-hybrid library CCNG1
T44 chain: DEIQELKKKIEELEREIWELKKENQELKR

[47] = target: T45, 4H953-bH; test: two-hybrid library CCNG1
T45 chain: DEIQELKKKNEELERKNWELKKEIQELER

[48] = target: T46, 4H2627-bH; test: two-hybrid library CCNG1
T46 chain: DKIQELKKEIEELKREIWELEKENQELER

[49] = target: T47, 4H170-bH; test: two-hybrid library CCNG1
T47 chain: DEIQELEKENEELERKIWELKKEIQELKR

[50] = target: T48, 4H968-bH; test: two-hybrid library CCNG1
T48 chain: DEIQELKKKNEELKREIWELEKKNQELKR

[51] = target: T49, 4H2673-bH; test: two-hybrid library CCNG1
T49 chain: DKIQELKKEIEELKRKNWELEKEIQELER

[52] = target: T50, 4H118-bH; test: two-hybrid library CCNG1
T50 chain: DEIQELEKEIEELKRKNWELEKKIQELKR

interaction score [1]: -1.79
interaction score [2]: -1.67
interaction score [3]: -0.272
interaction score [4]: -1.57
interaction score [5]: -2.48
interaction score [6]: -2.17
interaction score [7]: 2.21
interaction score [8]: -0.483
interaction score [9]: -1.1
interaction score [10]: -1.61
interaction score [11]: -1.83
interaction score [12]: -2.06
interaction score [13]: -1.79
interaction score [14]: -2.41
interaction score [15]: -2.12
B1: O10 (peptide)
chain: DKNAALKAENAALEYKIAALKAKIAALKG

interaction score [16]: -1.44
interaction score [17]: -0.291
interaction score [18]: -0.793
interaction score [19]: 1.19
interaction score [20]: -0.316
interaction score [21]: -0.128
interaction score [22]: -0.409
B2: 4H145-bH (peptide)
chain: DEIQELEKENEELERENWELEKEIQELER

interaction score [23]: 1.63
interaction score [24]: 0.454
interaction score [25]: 0.785
interaction score [26]: -0.371
B3: P5SC1 (peptide)
chain: DENSQLEEKISQLKQKNSRLKEEIARLEY

interaction score [27]: 0.154
interaction score [28]: -0.295
interaction score [29]: -0.152
interaction score [30]: 1.49
interaction score [31]: -0.515
interaction score [32]: -0.63
interaction score [33]: -0.0783
interaction score [34]: 1.45
interaction score [35]: 1.27
interaction score [36]: 0.23
interaction score [37]: 0.179
interaction score [38]: 0.143
interaction score [39]: 0.807
interaction score [40]: -0.606
interaction score [41]: 1.39
interaction score [42]: 1.65
interaction score [43]: 1.48
interaction score [44]: 0.914
interaction score [45]: 1.45
interaction score [46]: 0.211
interaction score [47]: -0.228
interaction score [48]: 1.4
interaction score [49]: -0.736
interaction score [50]: 0.0767
interaction score [51]: 0.53
interaction score [52]: 0.444
B4: 4H112-bH (peptide)
chain: DEIQELEKEIEELKRKIWELKKKNQELKR
